Laboratory results: article PMC10027511, “Disordered proteins mitigate the temperature dependence of site-specific binding free energies” (The Journal of Biological Chemistry, 2023)
Like-named read-outs stand apart in the source and are kept apart here.

How the values were obtained:
[1] = target: N-terminal SH3 domain of Drk (T22G); test: 1H-13C HMQC titration of SH3 into 13C-Ile Sos site 4 (NMR TITAN); type: binding, Drosophila melanogaster; details: for Kd: 51.5 μM Sos site 4, 20 mM sodium phosphate pH 7.5, 5% D2O; for Kd / koff / kon / ΔGA°′‡ (activation free energy of association) / ΔGD°′ (dissociation free energy) / ΔGD°′‡ (activation free energy of dissociation): single measurement, bootstrap; for koff / kon / ΔGA°′‡ (activation free energy of association) / ΔGD°′ (dissociation free energy) / ΔGD°′‡ (activation free energy of dissociation): pH 7.5
Description: As an alternative, we measured binding of Sos and SH3 from the opposite perspective, that is, by monitoring the interaction via Sos by moving the NMR-active nuclei from SH3 to Sos. Specifically, we isotopically enriched (^13C-δ1 methyl) isoleucines in the site 4 protein construct. This construct has three isoleucines: I1384 is in site 4; I1394 is adjacent to site 4; and I1325 is likely distant from site 4. Assignments were made via mutagenesis (Supplemental Material, Fig. S5). […] High-quality fits were obtained using two-dimensional lineshape analysis (Figs. S6–S10), yielding affinities (Table 1) similar to those from ITC (Table 2), and site 4 peptide, but only at low temperatures (Table 1) ([34]).
Figure 3 ^1H–^13C HMQC titration of Sos site 4 at 35 °C.A, spectra. B, simulated spectra from TITAN fits. C, van’t Hoff and Eyring analyses of ^1H–^13C HMQC titrations. Measurements were made with a constant concentration of 51.5 μM Sos site 4, with titration points signified by crosspeaks of different colors. SH3 concentrations are 270, 122, 100, 75.0, 50.0, 37.5, 25.0, 12.5, 6.25, 3.13, […], 0.781, 0.391, and 0 μM. HMQC, heteronuclear multiple quantum correlation; Sos, Son of sevenless.
NMR data were acquired using Bruker Avance III HD spectrometers equipped with QCI cryoprobes (^1H Larmor frequencies of 500, 470 MHz for ^19F), or TCI cryoprobes (^1H Larmor frequencies of 850 MHz, 213 MHz for ^13C). Data were processed using NMRpipe (2020.171.18.39). Spectra across different temperatures are referenced to trimethylsilylpropanesulfonate.
^1H–^13C correlation spectra were acquired using a heteronuclear multiple quantum correlation experiment (optimized for the methyl transverse relaxation optimized spectroscopy effect) ([66]) with between 8 and 40 scans, depending on the signal/noise of the Ile1384 peak. The ^1H sweep width was 15 PPM using 5120 complex points and a center frequency at 4.7 PPM. Forty-eight complex points were collected in the indirect dimension, with a sweep width of 5 PPM, and a center frequency of 12.5 PPM. The water signal was suppressed and dephased using a combination of presaturation and selective shaped pulses. Sos site 4 protein was exchanged into 20 mM sodium phosphate, pH 7.5 plus 5% (v/v) D2O using a PD-10 midi desalting column (Cytiva); its concentration was then adjusted to 51.5 μM. Four hundred microliters of Sos site 4 solution were used to dissolve lyophilized SH3 for the initial titration point, and then spectra were acquired at 4.2, 15, 25, 35, and 45 °C. The solution containing only Sos site 4 was used for a series of dilutions to obtain SH3 titration points of 270, 122, 100, 75.0, 50.0, 37.5, 25.0, 12.5, 6.25, 3.13, 1.56, 0.781, 0.391, and 0 μM.
^1H–^13C heteronuclear multiple quantum correlation titration measurements of SH3 into [^13CH3-Ile]-labeled Sos were analyzed using NMR TITAN, version 1.6 ([34]). Measurements for each temperature were fit to a two-state interaction model, and parameter uncertainties were estimated from 100 bootstrapped replicas ([34], [67]). Ile1384, Ile1394, Ile1325, and one pseudo peak were fit as a single spin group to account for overlapping resonances. Measurements across multiple temperatures were then fitted to the van’t Hoff and Eyring equations to determine Δ HD°′ , TΔ SD,298.15K°′ , Δ HA°′‡ , TΔ SA,298.15K°′‡ , Δ HD°′‡ , and TΔ SD,298.15K°′‡ . Errors generated from TITAN fits were used to perform weighted least squares regressions, and the reported uncertainties are the 95% confidence intervals of fits.

[2] = test system: N-terminal SH3 domain of Drk (T22G); test: ITC of Sos constructs (cell) with SH3 (syringe); type: binding, Drosophila melanogaster; details: for Kd: single-site model
Description: volume solution of SH3 was prepared in the same buffer, at an identical concentration of SH3. Measurements were
made at 4.2, 15, 25, 35 and 45 °C. The sample was then removed, diluted using the larger SH3 solution and returned
(§1) µM, with SH3 at 270 µM (Figure S3, Table S2).

[3] = target: T1, N-terminal SH3 domain of Drk (T22G, 19F-W36) (Drosophila melanogaster, UniProt Q08012, T22G); test: 19F NMR titration of SH3 with Sos site 4 (two-state and bidentate fits); type: binding
T1 construct: the N-terminal SH3 domain of Drk (UniProt ID: Q08012); 19F label: 5-fluorotryptophan at W36 (chemical label on the side chain); made in house
Description: Data were acquired using Bruker Avance III HD spectrometers equipped with a QCI cryoprobe (1H Larmor frequencies of 500, and 470 MHz for 19F). Data was processed using NMRpipe (2020.171.18.39) and referenced to trimethylsilylpropanesulfonate to account the temperature dependence of chemical shift. […]
site 4 (non-MBD tagged construct) was exchanged into of 50 mM HEPES, 50 mM bis-tris propane, 50 mM sodium acetate pH 7.5 plus 5% (v/v) D2O using a PD-10 Midi column (Cytiva) selecting the fractions with the highest concentration for the titration. The Sos solution was used to dissolved one aliquot of SH3, and a second, larger […]
volume solution of SH3 was prepared in the same buffer, at an identical concentration of SH3. Measurements were made at 4.2, 15, 25, 35 and 45 °C. The sample was then removed, diluted using the larger SH3 solution and returned […]
as §1

[4] = 298 K, linear Eyring fit, 95% confidence interval
[5] = linear Eyring fit, 95% confidence interval
[6] = 4.2 °C, SMG construct, 20 mM sodium phosphate pH 7.5, knockout subtracted, three fits
[7] = 4.2 °C, bidentate fit, strong site
[8] = 4.2 °C, bidentate fit, weak/nonspecific site
[9] = 15 °C, bidentate fit, strong site
[10] = 15 °C, bidentate fit, weak/nonspecific site
[11] = 25 °C, bidentate fit, strong site
[12] = 25 °C, bidentate fit, weak/nonspecific site
[13] = 35 °C, bidentate fit, strong site
[14] = 35 °C, bidentate fit, weak/nonspecific site
[15] = 45 °C, bidentate fit, strong site
[16] = 45 °C, bidentate fit, weak/nonspecific site

T1 sequence (Q08012 1-58 T22G): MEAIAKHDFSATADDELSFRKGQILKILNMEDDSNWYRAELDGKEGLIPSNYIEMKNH

B1: Site 4: Sos residues 1177 to 1405, L1203A, L1372A, R1375A, C1306S, C1357S, L1346A, R1349A, R1350A (protein, UniProt P26675 1177-1405, looked up, variant L1203A L1372A R1375A C1306S C1357S L1346A R1349A R1350A)
chain: TSSWSGTPQHTRTDQNNGEVSVPAPHAPKKPGAHVWANNNSTLASASAMDVVFSPALPEHLPPQSLPDSNPFASDTEAPPSPLPKLVVSPRHETGNRSPFHGRMQNSPTHSTASTVTLTGMSTSGGEEFSAGGFYFNSAHQGQPGAVPISPHVNVPMATNMEYRAVPPPAPPAAKERTESSADMAQKRQAPDAPTAPPADGELSPPPIPPRLNHSTGISYLRQSHGKSK
Kd ([1]; 4.2 °C): 3 ± 0.2 µM | koff ([1]; 4.2 °C): 0.093 ± 0.002 10^3 s^−1 | kon ([1]; 4.2 °C): 0.31 ± 0.02 10^8 M^−1 s^−1 | ΔGA°′‡ (activation free energy of association) ([1]; 4.2 °C): 28 ± 0.29 kJ/mol | ΔGD°′ (dissociation free energy) ([1]; 4.2 °C): 29.3 ± 0.29 kJ/mol | ΔGD°′‡ (activation free energy of dissociation) ([1]; 4.2 °C): 57.32 ± 0.084 kJ/mol | temperature dependence of ΔGD°′‡ and ΔGA°′‡ ([1]; 4.2–45 °C): do not change with temperature | Kd ([1]; 15 °C): 4.5 ± 0.2 µM | koff ([1]; 15 °C): 0.25 ± 0.09 10^3 s^−1 | kon ([1]; 15 °C): 0.56 ± 0.03 10^8 M^−1 s^−1 | ΔGA°′‡ (activation free energy of association) ([1]; 15 °C): 27.8 ± 0.25 kJ/mol | ΔGD°′ (dissociation free energy) ([1]; 15 °C): 29.5 ± 0.17 kJ/mol | ΔGD°′‡ (activation free energy of dissociation) ([1]; 15 °C): 57.28 ± 0.17 kJ/mol | Kd ([1]; 25 °C): 6.4 ± 0.2 µM | koff ([1]; 25 °C): 0.62 ± 0.03 10^3 s^−1 | kon ([1]; 25 °C): 0.97 ± 0.06 10^8 M^−1 s^−1 | ΔGA°′‡ (activation free energy of association) ([1]; 25 °C): 27.4 ± 0.25 kJ/mol | ΔGD°′ (dissociation free energy) ([1]; 25 °C): 29.7 ± 0.13 kJ/mol | ΔGD°′‡ (activation free energy of dissociation) ([1]; 25 °C): 57.07 ± 0.21 kJ/mol | Kd ([1]; 35 °C): 9.7 ± 0.2 µM | koff ([1]; 35 °C): 1.25 ± 0.04 10^3 s^−1 | kon ([1]; 35 °C): 1.29 ± 0.05 10^8 M^−1 s^−1 | ΔGA°′‡ (activation free energy of association) ([1]; 35 °C): 27.7 ± 0.17 kJ/mol | ΔGD°′ (dissociation free energy) ([1]; 35 °C): 29.6 ± 0.084 kJ/mol | ΔGD°′‡ (activation free energy of dissociation) ([1]; 35 °C): 57.28 ± 0.13 kJ/mol | Kd ([1]; 45 °C): 17.8 ± 0.5 µM | koff ([1]; 45 °C): 4.4 ± 0.2 10^3 s^−1 | kon ([1]; 45 °C): 2.5 ± 0.1 10^8 M^−1 s^−1 | ΔGA°′‡ (activation free energy of association) ([1]; 45 °C): 27 ± 0.21 kJ/mol | ΔGD°′ (dissociation free energy) ([1]; 45 °C): 28.9 ± 0.13 kJ/mol | ΔGD°′‡ (activation free energy of dissociation) ([1]; 45 °C): 55.9 ± 0.21 kJ/mol | TΔSA°′‡ (activation entropy of association) [1, 4]: 1 ± 1 | TΔSD°′‡ (activation entropy of dissociation) [1, 4]: 1 ± 2 | TΔSD°′ (van't Hoff) ([1]; 298 K, linear van't Hoff fit, 95% confidence interval): 0 ± 8.4 kJ/mol | ΔHA°′‡ (activation enthalpy of association) [1, 5]: 29 ± 4.2 kJ/mol | ΔHD°′‡ (activation enthalpy of dissociation) [1, 5]: 58.6 ± 4.2 kJ/mol | ΔHD°′ (van't Hoff) ([1]; linear van't Hoff fit of 4.2-45 °C data, 95% confidence interval): 29 ± 8.4 kJ/mol | Kd [2, 6]: 3 ± 1 µM | ΔHD°′ [2, 6]: 11.7 ± 0.42 kJ/mol | Kd ([2]; 35 °C (35.1 in Table S1), SMG construct, 20 mM sodium phosphate pH 7.5, knockout subtracted, three fits): 14 ± 3 µM | sign of ΔCP,D ([2]; from ΔHD°′ at 4.2 and 35 °C): positive | stoichiometry before knockout subtraction ([2]; unsaturated after >3 mole equivalents, specific plus nonspecific binding): > 1 | Site 1 koff [3, 7]: 0.080 103 s-1 | Site 1 kon [3, 7]: 0.37 108 s-1 M-1 | Kd ([3]; 4.2 °C, bidentate fit, strong site, 50 mM HEPES, 50 mM bis-tris propane, 50 mM sodium acetate pH 7.5, 5% D2O, MG construct, read-out: Site 1 KD): 2.15 µM | Site 2 koff [3, 8]: 11 ± 4 103 s-1 | Site 2 kon [3, 8]: 0.15 108 s-1 M-1 | Kd ([3]; 4.2 °C, bidentate fit, weak/nonspecific site, read-out: Site 2 KD): 800 µM | Kd ([3]; 4.2 °C, two-state model (poor fit), read-out: KD): 0.3 µM | Site 1 koff [3, 9]: 0.239 103 s-1 | Site 1 kon [3, 9]: 0.49 108 s-1 M-1 | Kd ([3]; 15 °C, bidentate fit, strong site, pH 7.5, read-out: Site 1 KD): 4.9 µM | Site 2 koff [3, 10]: 15 ± 4 103 s-1 | Site 2 kon [3, 10]: 0.10 108 s-1 M-1 | Kd ([3]; 15 °C, bidentate fit, weak/nonspecific site, read-out: Site 2 KD): 1500 µM | Site 1 koff [3, 11]: 0.667 103 s-1 | Site 1 kon [3, 11]: 0.63 108 s-1 M-1 | Kd ([3]; 25 °C, bidentate fit, strong site, pH 7.5, read-out: Site 1 KD): 10.6 µM | Site 2 koff [3, 12]: 19 ± 5 103 s-1 | Site 2 kon [3, 12]: 0.06 108 s-1 M-1 | Kd ([3]; 25 °C, bidentate fit, weak/nonspecific site, read-out: Site 2 KD): 3000 µM | Site 1 koff [3, 13]: 1.74 103 s-1 | Site 1 kon [3, 13]: 0.80 108 s-1 M-1 | Kd ([3]; 35 °C, bidentate fit, strong site, pH 7.5, read-out: Site 1 KD): 21.7 µM | Site 2 koff [3, 14]: 23 ± 7 103 s-1 | Site 2 kon [3, 14]: 0.04 108 s-1 M-1 | Kd ([3]; 35 °C, bidentate fit, weak/nonspecific site, read-out: Site 2 KD): 6000 µM | Site 1 koff [3, 15]: 4.29 103 s-1 | Site 1 kon [3, 15]: 1.01 108 s-1 M-1 | Kd ([3]; 45 °C, bidentate fit, strong site, pH 7.5, read-out: Site 1 KD): 42.6 µM | Site 2 koff [3, 16]: 30 ± 10 103 s-1 | Site 2 kon [3, 16]: 0.03 108 s-1 M-1 | Kd ([3]; 45 °C, bidentate fit, weak/nonspecific site, read-out: Site 2 KD): 10000 µM
